Where a chain is given by its changes, count along the chain named. Numbers in names are those of the source.
B1: Humanized anti-ILT3 mAb (52B8 VH1/VL1) IgG4 S228P/Kappa (antibody, V domains shown)
VH: EVQLVESGGGLVQPGGSLRLSCAASGFTFSNYGMSWVRQAPGKGLEWVATISGGGDYTNYPDSMRGRFTISRDNAKNSLYLQMNSLRAEDTAVYYCGRRLWFRSLYYAMDYWGQGTLVTVSS
VL: DIVLTQSPDSLAVSLGERATINCRASEKVDSFGNSFMHWYQQKPGQPPKLLIYLTSNLDSGVPDRFSGSGSRTDFTLTISSLQAEDVAVYYCQQNNEDPYTFGQGTKLEIKR
notes: also called mAb 1
B2: Humanized anti-ILT3 mAb (52B8 VH2/VL1) IgG4 S228P/Kappa (antibody, V domains shown)
VH: B1 VH with R87K
VL: B1 VL
B3: Humanized anti-ILT3 mAb (52B8 VH1 M64V W101Q/VL5 N34D) IgG4 S228P/Kappa (antibody, V domains shown)
VH: B1 VH with M64V, W101Q
VL: DIQLTQSPSSLSASVGDRVTITCRASEKVDSFGDSFMHWYQQKPGKAPKLLIYLTSNLDSGVPSRFSGSGSGTDFTLTISSLQPEDFATYYCQQNNEDPYTFGQGTKLEIKR
notes: also called mAb 62
B4: Humanized anti-ILT3 mAb (52B8 VH1 M64V W101Q/VL5 S35A) IgG4 S228P/Kappa (antibody, V domains shown)
VH: B1 VH with M64V, W101Q
VL: B3 VL with D34N, S35A
notes: also called mAb 59
B5: Humanized anti-ILT3 mAb (52B8 VH1 M64V W101F/VL5 S35A) IgG4 S228P/Kappa (antibody, V domains shown)
VH: B1 VH with M64V, W101F
VL: B3 VL with D34N, S35A
notes: also called mAb 51
B6: Humanized anti-ILT3 mAb (52B8 VH1 M64L/VL1) IgG4 S228P/Kappa (antibody, V domains shown)
VH: B1 VH with M64L
VL: B1 VL
notes: also called mAb 17
B7: Humanized anti-ILT3 mAb (52B8 VH1 M64V/VL1) IgG4 S228P/Kappa (antibody, V domains shown)
VH: B1 VH with M64V
VL: B1 VL
notes: also called mAb 9
B8: Humanized anti-ILT3 mAb (52B8 VH1 M64V W101F/VL5 S35N) IgG4 S228P/Kappa (antibody, V domains shown)
VH: B1 VH with M64V, W101F
VL: B3 VL with D34N, S35N
B9: Humanized anti-ILT3 mAb (52B8 VH2 M64V/VL1) IgG4 S228P/Kappa (antibody, V domains shown)
VH: B1 VH with M64V, R87K
VL: B1 VL
notes: also called mAb 13
B10: Humanized anti-ILT3 mAb (52B8 VH1 M64V W101Q/VL5 N34Q) IgG4 S228P/Kappa (antibody, V domains shown)
VH: B1 VH with M64V, W101Q
VL: B3 VL with D34Q
notes: also called mAb 61
B11: Humanized anti-ILT3 mAb (52B8 VH1 M64V W101F/VL5 N34D) IgG4 S228P/Kappa (antibody, V domains shown)
VH: B1 VH with M64V, W101F
VL: B3 VL
notes: also called mAb 54
B12: Humanized anti-ILT3 mAb (52B8 VH1 M64V W101Q/VL5 S35N) IgG4 S228P/Kappa (antibody, V domains shown)
VH: B1 VH with M64V, W101Q
VL: B3 VL with D34N, S35N
notes: also called mAb 60
B13: Humanized anti-ILT3 mAb (52B8 VH1 M64V W101F/VL5 N34Q) IgG4 S228P/Kappa (antibody, V domains shown)
VH: B1 VH with M64V, W101F
VL: B3 VL with D34Q
notes: also called mAb 53

Molecular target: T1, Human ILT3 (LILRB4) extracellular domain with C-terminal His Tag (human, UniProt Q8NHJ6 22-259)
T1 construct: the claims count residues 1-238 as the extracellular domain; also called human ILT3-His; ILT3_H
Assay: SPR (Biacore), human ILT3-His
Method: (§1) The binding kinetics and affinities of anti-human ILT3 clones for human or rhesus ILT3-His tagged recombinant protein were measured by surface plasmon resonance using a Biacore™ T200 system (GE Healthcare, Piscataway, NJ). HBS-EP+ buffer (BR-1006-69) was used as the running buffer. Anti-human Fc antibody (Human Fc Capture Kit, BR100839, GE Healthcare) was immobilized via amine coupling chemistry in all four flow cells on a Series S CM5 sensor chip (BR100530 or 29149603, GE Healthcare) following manufacturer instructions. Flow cell 1 was used as reference for background subtraction and was not used for capture. […] Following each injection cycle, all four flow cells were regenerated using 30 second injection of 3M MgCl₂ solution at a flow rate of 10 μL/minute. Reference subtracted sensorgrams were fit to a 1:1 Langmuir Binding Model in the Biacore™ T200 Evaluation Software (Version 2.0) to determine the association (ka) and dissociation (kd) rate constants and the equilibrium dissociation constant KD (=kd/ka).

**Q.** How did the Kd turn out when B1 was run?
**A.** 0.99 nM

**Q.** Which Kd does the source give for B2 here?
**A.** 0.94 nM

**Q.** Does B3 bind?
**A.** no binding (tested: ILT3-His injected up to 20 nM)

**Q.** Does B4 bind?
**A.** no binding (tested: ILT3-His injected up to 20 nM)

**Q.** Does B5 bind?
**A.** no binding (tested: ILT3-His injected up to 20 nM)

**Q.** How did the Kd turn out when B6 was run?
**A.** 0.87 nM

**Q.** B7 was tested. Which Kd did it give?
**A.** 0.94 nM

**Q.** Does B8 bind?
**A.** no binding (tested: ILT3-His injected up to 20 nM)

**Q.** With B9 as the binder, how does the Kd read?
**A.** 0.94 nM

**Q.** Does B10 bind?
**A.** no binding (tested: ILT3-His injected up to 20 nM)

**Q.** Does B11 bind?
**A.** no binding (tested: ILT3-His injected up to 20 nM)

**Q.** Does B12 bind?
**A.** no binding (tested: ILT3-His injected up to 20 nM)

**Q.** How did the Kd turn out when B13 was run?
**A.** 35 nM

Molecular target: T2, rhesus ILT3-His tagged recombinant protein (rhesus monkey (Macaca mulatta))
T2 construct: also called ILT3_MM; not shown: His tag
T2 chain: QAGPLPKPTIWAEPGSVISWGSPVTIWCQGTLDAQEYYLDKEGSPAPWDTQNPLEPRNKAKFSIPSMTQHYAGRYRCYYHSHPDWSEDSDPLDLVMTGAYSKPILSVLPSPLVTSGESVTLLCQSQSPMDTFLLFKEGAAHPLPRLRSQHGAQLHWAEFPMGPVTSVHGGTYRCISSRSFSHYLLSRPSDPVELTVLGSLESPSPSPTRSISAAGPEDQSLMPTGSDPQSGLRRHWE
Assay: SPR (Biacore), rhesus ILT3-His
Method: as §1

**Q.** For B1, which Kd is on record?
**A.** 25 nM

**Q.** B2 was tested. Which Kd did it give?
**A.** 25 nM

**Q.** Does B3 bind?
**A.** no binding (tested: ILT3-His injected up to 20 nM)

**Q.** Does B4 bind?
**A.** no binding (tested: ILT3-His injected up to 20 nM)

**Q.** Does B5 bind?
**A.** no binding (tested: ILT3-His injected up to 20 nM)

**Q.** B6 was tested. Which Kd did it give?
**A.** 24 nM

**Q.** With B7 as the binder, how does the Kd read?
**A.** 26 nM

**Q.** Does B8 bind?
**A.** no binding (tested: ILT3-His injected up to 20 nM)

**Q.** How did the Kd turn out when B9 was run?
**A.** 25 nM

**Q.** Does B10 bind?
**A.** no binding (tested: ILT3-His injected up to 20 nM)

**Q.** Does B11 bind?
**A.** no binding (tested: ILT3-His injected up to 20 nM)

**Q.** Does B12 bind?
**A.** no binding (tested: ILT3-His injected up to 20 nM)

**Q.** Does B13 bind?
**A.** no binding (tested: ILT3-His injected up to 20 nM)

Source: patent US20260167718A1 (Merck Sharp & Dohme, published 2026)
